Legend:
[1] = biological target: RBD of SARS-CoV-1 (Tor 2) (SARS-CoV-1, Tor2, UniProt P59594); test: BLI
[2] = biological target: RBD of pangolin CoV (PCoV-GD1) (Pangolin coronavirus GD/1/2019 …); test: BLI

B1: D27LEY (antibody, V domains shown)
VH: QVQLQQSGAEVKKPGSSVKVSCKASGGTFGNWSISWVRQAPGQGLEWMGGIAPGRGEATYAQKFQGRVTITTDESTSTAYMELSSLRSEDTAVYYCARETWYTSGGMDVWGQGTTVTVSS
VL: SYELTQPPSVSVAPGKTARITCGGNNIGRKSVHWYQQKPGQAPVLVVYDDSDRPSGIPERFSGSNSGNTATLTISRVEAGDEADYYCQVYDLWSSDYVFGTGTKVEIK
In the case of B1, the Kd [1] is reported as < 0.001 nM and the Kd [2] is reported as 0.66 nM.
